Laboratory results from US20140287989A1 (CENTRE NATIONAL DE LA RECHERCHE SCIENTIFIQUE, published 2014).
Read-outs that look alike come from different tables or passages of the source. Square brackets hold non-standard residues; d marks the D form. Cha = N[C@@H](CC1CCCCC1)C(=O)O

Key:
[1] = biological target: T1, E. coli β clamp (β subunit of DNA polymerase III, dnaN gene product) (E. coli, UniProt P0A988 1-366); test: SPR competition; ΔG = -RT ln Ki
T1 construct: Homodimeric ring; N-tagged protein expressed in BL21 E. coli and purified on Ni-NTA and MonoQ; also called β ring; β protein; not shown: N-terminal tag from the pET15b plasmid

[2] = biological target: T1, E. coli β clamp (β subunit of DNA …); test: SPR competition: peptide with β ring injected on immobilized P1
[3] = biological target: T1, E. coli β clamp (β subunit of DNA …); test: as above; remark: listed apart in the source
[4] = biological target: T1, E. coli β clamp (β subunit of DNA …); test: as above; remark: listed apart in the source

T1 sequence (P0A988 whole entry): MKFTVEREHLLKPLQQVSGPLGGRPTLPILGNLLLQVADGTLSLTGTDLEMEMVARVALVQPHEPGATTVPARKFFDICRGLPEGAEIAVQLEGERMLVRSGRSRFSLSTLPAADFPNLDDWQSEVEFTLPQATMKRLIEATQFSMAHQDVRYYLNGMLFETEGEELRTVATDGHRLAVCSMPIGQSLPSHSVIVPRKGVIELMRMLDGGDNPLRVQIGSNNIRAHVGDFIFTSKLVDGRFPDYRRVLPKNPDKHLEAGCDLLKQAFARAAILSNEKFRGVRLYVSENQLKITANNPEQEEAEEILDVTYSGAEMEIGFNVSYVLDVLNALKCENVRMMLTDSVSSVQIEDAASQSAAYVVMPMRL

B1: P7, Ac-Gln-Cha-Asp-Leu-Phe-OH (peptide)
peptide: Ac-Q[Cha]DLF-OH
SMILES: CC(=O)N[C@@H](CCC(N)=O)C(=O)N[C@@H](CC1CCCCC1)C(=O)N[C@@H](CC(=O)O)C(=O)N[C@@H](CC(C)C)C(=O)N[C@@H](Cc1ccccc1)C(=O)O
notes: X stands for the non-natural residue; also called Ac Q ChaDLF; AcQChaDLF
[1]
  ΔG: -9.42 kcal/mol
[2]
  IC50: 170 nM
[3]
  IC50: 170 nM
[4]
  IC50: 170 nM
